Data taken from paper PMC3272265.

Assays:
[1] = mating with proven fertile normal males; details: glycan lost; control: co-caged transgenic control females
[2] = two-cell embryos after overnight incubation; details: glycan lost; control: normal eggs
[3] = EGFP acrosome status and Alexa 568-SBTI staining; details: glycan lost; control: normal eggs
[4] = displacement of Hoechst-labelled sperm by Acr3-EGFP sperm; details: glycan lost; control: normal eggs

B1: ZP3: Zp3Mut (protein)
parent chain: MASSYFLFLCLLLCGGPELCNSQTLWLLPGGTPTPVGSSSPVKVECLEAELVVTVSRDLFGTGKLVQPGDLTLGSEGCQPRVSVDTDVVRFNAQLHECSSRVQMTKDALVYSTFLLHDPRPVSGLSILRTNRVEVPIECRYPRQGNVSSHPIQPTWVPFRATVSSEEKLAFSLRLMEENWNTEKSAPTFHLGEVAHLQAEVQTGSHLPLQLFVDHCVATPSPLPDPNSSPYHFIVDFHGCLVDGLSESFSAFQVPRPRPETLQFTVDVFHFANSSRNTLYITCHLKVAPANQIPDKLNKACSFNKTSQSWLPVEGDADICDCCSHGNCSNSSSSQFQIHGPRQWSKLVSRNRRHVTDEADVTVGPLIFLGKANDQTVEGWTASAQTSVALGLGLATVAFLTLAAIVLAVTRKCHSSSYLVSLPQ
no change: other: in vivo fertility (litter size) [1] | other: in vitro fertilisation rate [2] | other: induction of sperm acrosome exocytosis [3] | other: reversibility of sperm binding [4]
